Assay results taken from PMC7409301, “Natural Killer Cell Activation Receptor NKp30 Oligomerization Depends on Its N-Glycosylation” (Cancers, 2020).
Where “and” joins values, the source holds several entries; their conditions need not be identical. Equal entries are not always repeated.

B1: NKp30: Endo F1 (protein)
parent chain: MAWMLLLILIMVHPGSCALWVSQPPEIRTLEGSSAFLPCSFNASQGRLAIGSVTWFRDEVVPGKEVRNGTPEFRGRLAPLASSRFLHDHQAELHIRDVRGHDASIYVCRVEVLGLGVGTGNGTRLVVEKEHPQLGAGTVLLLRAGFYAVSFLSVAVGSTVYYQGKCLTWKGPRRQLPAVVPAPLPPPCGSSAHLLPPVPGG
B2: wild-type B7-H6 extracellular portion (with the odd cysteine Cys212) (domain or fragment, UniProt Q68D85 25-245, looked up)
chain: DLKVEMMAGGTQITPLNDNVTIFCNIFYSQPLNITSMGITWFWKSLTFDKEVKVFEFFGDHQEAFRPGAIVSPWRLKSGDASLRLPGIQLEEAGEYRCEVVVTPLKAQGTVQLEVVASPASRLLLDQVGMKENEDKYMCESSGFYPEAINITWEKQTQKFPHPIEISEDVITGPTIKNMDGTFNVTSCLKLNSSQEDPGTVYQCVVRHASLHTPLRSNFTL
modifications: N-glycosylated; disulfide bridges not linked correctly by mass spectrometry
notes: entire extracellular portion Asp25-Leu245 with two Ig-like domains; source: HEK293 cells, transient transfection, secreted, purified (IMAC, SEC); not shown: three amino acids left after cleavage of the secretion signal, N-terminal, kept

Assays:
[1] = SEC-MALS; conditions: glycan lost; control: glycosylated NKp30_Stalk (HEK293T or HEK293S GnTI−)
[2] = sedimentation velocity AUC; conditions: glycan lost; control: NKp30_Stalk from HEK293S GnTI− (uniform glycans)
[3] = molecular target: the molecule itself; assay: AUC; sedimentation velocity of wild-type B7-H6 at 0.5 mg/mL, c(s) distribution

| Protein | oligomerisation [1] | oligomerisation [2] | stoichiometry N [3] |
| --- | --- | --- | --- |
| B1 | abolishes | abolishes |  |
| B2 |  |  | 2 and 4 |
